According to the supplement of paper PMC7125110:
± gives the standard error. For part of these data: Fewer inactive variants are shown than the library holds.

B1: glmS ribozyme (parent)
chain: AUAAAAGCGCCAGAACUACAGAAAUGUAGUUGACGAGGAGGAGGUUUAUCGAAUUUUCGGCGGAUGCCUCCAAA

Legend:
Conditions in all cases: with glucosamine-6-phosphate
glucosamine-6-phosphate [1] = variants of: B1; assay: kcat; higher = faster cleavage; RNA array
How it was run: (§1)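 A hybridised Cy3 probe tracked barcoded ribozyme variants, transcribed in situ by E. coli RNA polymerase on sequenced MiSeq chips, at 37 °C. The variants received 40 μM to 10 mM glucosamine-6-phosphate in HEPES/KCl/Mg(OAc)2 buffer. kobs came from decay fits and kcat and KM from weighted Michaelis–Menten fits.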

glucosamine-6-phosphate [2] = variants of: B1; assay: KM; higher = weaker cofactor use; RNA array
How it was run: as §1

glucosamine-6-phosphate [3] = variants of: B1; assay: self-cleavage kobs at 640 uM GlcN6P; higher = faster cleavage; RNA array
How it was run: as §1

glucosamine-6-phosphate [4] = variants of: B1; assay: self-cleavage kobs at 2500 uM GlcN6P; higher = faster cleavage; RNA array
How it was run: as §1

glucosamine-6-phosphate [5] = variants of: B1; assay: self-cleavage kobs at 10000 uM GlcN6P; higher = faster cleavage; RNA array
How it was run: as §1

glucosamine-6-phosphate [6] = variants of: B1; assay: self-cleavage kobs at 40 uM GlcN6P; higher = faster cleavage; RNA array
How it was run: as §1

glucosamine-6-phosphate [7] = variants of: B1; assay: self-cleavage kobs at 160 uM GlcN6P; higher = faster cleavage; RNA array
How it was run: as §1

Variant | kcat (glucosamine-6-phosphate [1]) | KM (glucosamine-6-phosphate [2]) | self-cleavage kobs at 640 uM GlcN6P (glucosamine-6-phosphate [3]) | self-cleavage kobs at 2500 uM GlcN6P (glucosamine-6-phosphate [4]) | self-cleavage kobs at 10000 uM GlcN6P (glucosamine-6-phosphate [5]) | self-cleavage kobs at 40 uM GlcN6P (glucosamine-6-phosphate [6]) | self-cleavage kobs at 160 uM GlcN6P (glucosamine-6-phosphate [7])
A12G U56C | 0.000482 ± 5.2e-05 s⁻¹ | 9850 ± 1600 µM | 3.18e-05 ± 1.4e-05 s⁻¹ | 9.57e-05 ± 1.7e-05 s⁻¹ | 0.000244 ± 3.4e-05 s⁻¹ |  | 
A12U A42G | 0.0985 ± 0.045 s⁻¹ |  | 0.0249 ± 0.006 s⁻¹ |  | 0.116 ± 0.044 s⁻¹ | 0.00296 ± 0.00037 s⁻¹ | 0.00676 ± 0.0033 s⁻¹
C10U U69G | 2.93e-05 ± 5.7e-06 s⁻¹ |  | 2.55e-05 ± 1.1e-05 s⁻¹ | 3.24e-05 ± 9.9e-06 s⁻¹ |  |  | 2.85e-05 ± 8.2e-06 s⁻¹
A6U G32A | < 1e-05 s⁻¹ |  |  |  |  | < 1e-05 s⁻¹ | < 1e-05 s⁻¹
G7A C16G | < 1e-05 s⁻¹ |  |  | < 1e-05 s⁻¹ | < 1e-05 s⁻¹ | < 1e-05 s⁻¹ | < 1e-05 s⁻¹
A12G U31C | 0.000113 ± 7.3e-06 s⁻¹ | 4090 ± 630 µM |  | 4.42e-05 ± 9.5e-06 s⁻¹ | 7.95e-05 ± 1.1e-05 s⁻¹ |  | 
A12C G66U C70U | 0.00136 ± 0.00036 s⁻¹ | 1190 ± 570 µM | 0.000496 ± 0.00012 s⁻¹ | 0.00128 ± 0.00028 s⁻¹ | 0.000992 ± 0.00028 s⁻¹ | 3.71e-05 ± 1.5e-05 s⁻¹ | 
A6U G29C | < 1e-05 s⁻¹ |  | < 1e-05 s⁻¹ |  |  | < 1e-05 s⁻¹ | < 1e-05 s⁻¹
C11U U56A | 0.00124 ± 0.00023 s⁻¹ | 1910 ± 580 µM | 0.000294 ± 4.5e-05 s⁻¹ | 0.000621 ± 7.2e-05 s⁻¹ | 0.00125 ± 0.00016 s⁻¹ | 3.72e-05 ± 1e-05 s⁻¹ | 0.000103 ± 1.4e-05 s⁻¹
C11U U56C | 0.000248 ± 5e-05 s⁻¹ | 2260 ± 1000 µM | 4.51e-05 ± 9.7e-06 s⁻¹ | 0.000176 ± 2.3e-05 s⁻¹ | 0.000188 ± 2.3e-05 s⁻¹ |  | 
A6U A15G | 0.000987 ± 0.00028 s⁻¹ |  | 4.1e-05 ± 1.2e-05 s⁻¹ | 0.0002 ± 3.8e-05 s⁻¹ | 0.000441 ± 5.1e-05 s⁻¹ |  | 
C11U G29C | 0.00018 ± 9.3e-06 s⁻¹ | 1860 ± 290 µM | 4.1e-05 ± 1.1e-05 s⁻¹ | 0.000109 ± 1.3e-05 s⁻¹ | 0.00015 ± 1.2e-05 s⁻¹ |  | 
C11U A14U | 0.00134 ± 0.00035 s⁻¹ | 2130 ± 810 µM | 0.000266 ± 3.5e-05 s⁻¹ | 0.00104 ± 0.00013 s⁻¹ | 0.000984 ± 0.00014 s⁻¹ |  | 9.95e-05 ± 1.2e-05 s⁻¹
G7A C34U C70G | 1.85e-05 ± 9.1e-06 s⁻¹ |  |  |  |  |  | 
C10A U65G | < 1e-05 s⁻¹ |  | < 1e-05 s⁻¹ | < 1e-05 s⁻¹ | < 1e-05 s⁻¹ | < 1e-05 s⁻¹ | 
C10U C67G U69G | 1.67e-05 ± 3.6e-06 s⁻¹ |  |  |  |  |  | 
A12G U31A G32U | 6.44e-05 ± 1.1e-06 s⁻¹ | 5790 ± 240 µM |  |  | 4.08e-05 ± 1.1e-05 s⁻¹ |  | 
C11U C34U G63U C70G | 2.22e-05 ± 4.3e-06 s⁻¹ |  |  |  |  |  | 
G7C G38C | < 1e-05 s⁻¹ |  |  |  | < 1e-05 s⁻¹ |  | 

Variant | kcat (glucosamine-6-phosphate [1]) | KM (glucosamine-6-phosphate [2]) | self-cleavage kobs at 640 uM GlcN6P (glucosamine-6-phosphate [3]) | self-cleavage kobs at 2500 uM GlcN6P (glucosamine-6-phosphate [4]) | self-cleavage kobs at 10000 uM GlcN6P (glucosamine-6-phosphate [5]) | self-cleavage kobs at 40 uM GlcN6P (glucosamine-6-phosphate [6]) | self-cleavage kobs at 160 uM GlcN6P (glucosamine-6-phosphate [7])
C8A C71G | 1.09e-05 ± 3.7e-06 s⁻¹ |  |  |  |  |  | 
A12C A64C | 0.000233 ± 1.8e-05 s⁻¹ | 4850 ± 770 µM |  | 8.34e-05 ± 1.5e-05 s⁻¹ | 0.000156 ± 2e-05 s⁻¹ |  | 
A6U G7A | < 1e-05 s⁻¹ |  | < 1e-05 s⁻¹ |  |  |  | < 1e-05 s⁻¹
C11U G37C | 1.18e-05 ± 3.2e-06 s⁻¹ |  |  |  |  |  | 
G9A A12C | < 1e-05 s⁻¹ |  | < 1e-05 s⁻¹ |  |  |  | 
G13A A15C | 0.000242 ± 3.2e-05 s⁻¹ | 2680 ± 760 µM | 5.24e-05 ± 1.1e-05 s⁻¹ | 9.3e-05 ± 2.5e-05 s⁻¹ | 0.000198 ± 2.6e-05 s⁻¹ |  | 
G13A | 0.00142 ± 0.00018 s⁻¹ | 4830 ± 750 µM | 0.000162 ± 3.8e-06 s⁻¹ | 0.00057 ± 3.3e-05 s⁻¹ | 0.000945 ± 3.6e-05 s⁻¹ | 1.56e-05 ± 1.7e-06 s⁻¹ | 4.65e-05 ± 1.7e-06 s⁻¹
A12U C58A | 0.00172 ± 0.00051 s⁻¹ |  | 5.11e-05 ± 1.2e-05 s⁻¹ | 0.000149 ± 2.6e-05 s⁻¹ | 0.00051 ± 6.1e-05 s⁻¹ |  | 
C10U G60A | 1.02e-05 ± 1.8e-06 s⁻¹ |  |  |  |  | < 1e-05 s⁻¹ | 
A12C U31A | 0.0133 ± 0.004 s⁻¹ | 4520 ± 1700 µM | 0.00151 ± 0.00035 s⁻¹ | 0.00434 ± 0.00085 s⁻¹ | 0.00974 ± 0.0017 s⁻¹ | 0.000142 ± 1.7e-05 s⁻¹ | 0.000363 ± 7.2e-05 s⁻¹
A12U G40A | 0.0133 ± 0.0024 s⁻¹ | 1110 ± 310 µM | 0.0042 ± 0.001 s⁻¹ | 0.00929 ± 0.0029 s⁻¹ | 0.013 ± 0.0034 s⁻¹ | 0.000618 ± 0.00017 s⁻¹ | 0.00156 ± 0.00048 s⁻¹
C10U A15G C68U | 1.81e-05 ± 6.2e-06 s⁻¹ |  |  |  |  |  | 
C11A C68U | 5.04e-05 ± 2.5e-06 s⁻¹ | 459 ± 170 µM | 3.2e-05 ± 1.4e-05 s⁻¹ | 3.54e-05 ± 1.4e-05 s⁻¹ | 4.9e-05 ± 6.3e-06 s⁻¹ |  | 
G13A C16U | 0.000763 ± 9.4e-05 s⁻¹ | 2220 ± 460 µM | 0.000172 ± 2.2e-05 s⁻¹ | 0.000459 ± 5.5e-05 s⁻¹ | 0.000577 ± 7.9e-05 s⁻¹ |  | 4.29e-05 ± 1.2e-05 s⁻¹
G13A C16G | 0.000217 ± 1.4e-05 s⁻¹ | 1970 ± 290 µM | 5.02e-05 ± 1.2e-05 s⁻¹ | 0.000131 ± 2.4e-05 s⁻¹ | 0.000178 ± 2.5e-05 s⁻¹ |  | 
A6U U30C | < 1e-05 s⁻¹ |  | < 1e-05 s⁻¹ | < 1e-05 s⁻¹ |  |  | 
C11U U31C A52U | < 1e-05 s⁻¹ |  |  |  |  |  | 
A12C G60A | < 1e-05 s⁻¹ |  | < 1e-05 s⁻¹ |  |  |  | < 1e-05 s⁻¹
C11A A15U | 6.57e-05 ± 4.8e-06 s⁻¹ | 1510 ± 380 µM |  | 3.75e-05 ± 1.7e-05 s⁻¹ | 5.85e-05 ± 1.7e-05 s⁻¹ |  | 
